This note sets out measurements from the supplement of paper PMC5998384.

Series [1] deals with HeLa Kyoto. The series is described as follows: solubility in G1/S (NP-40 vs SDS abundance) (log2 ratio); higher = more soluble. The conditions noted are these: cell cycle stage: G1/S.
Series [2] has as its system HeLa Kyoto. The experiment in a line: melting temperature (median over replicates), in situ; higher = more thermally stable.
The subject of series [3] is HeLa Kyoto. The series is described as follows: solubility change mitosis vs G1/S (difference of NP-40 vs SDS log2 ratios) (log2 ratio difference); higher = more soluble in mitosis.
Series [4] concerns HeLa Kyoto. The series is described as follows: thermal stability score vs G1/S (z-score of summed log2 fold changes over temperatures); higher = more thermally stable than in G1/S.
Setting [5] is: cell cycle stage: early G1 (4.5 h after nocodazole release).
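For melting temperature (median over replicates), in situ in this document: HeLa Kyoto cells synchronized by double thymidine or nocodazole block, proteins quantified by TMT10plex mass spectrometry, three independent biological replicates.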
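For solubility change mitosis vs G1/S (difference of NP-40 vs SDS log2 ratios) in this document: synchronized HeLa Kyoto cells (double thymidine block for G1/S, nocodazole release for mitosis), protein amounts in NP-40 versus SDS lysates quantified by mass spectrometry, three biological replicates.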
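For solubility in G1/S (NP-40 vs SDS abundance) in this document: HeLa Kyoto cells arrested at G1/S by double thymidine block, proteins quantified by TMT10plex mass spectrometry in mild NP-40 versus SDS extracts, three biological replicates.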
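For thermal stability score vs G1/S (z-score of summed log2 fold changes over temperatures) in this document: synchronized HeLa Kyoto cells, proteins quantified by TMT10plex mass spectrometry, three biological replicates, mitosis taken 0.5 h after nocodazole release, G1/S directly after double thymidine block.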

Consider “MEQVAEGARVTAVPVSAADSTEELAEVEEGVGVVGEDNDAAARGAEAFGDSEEDGEDVFEVEKILDMKTEGGKVLYKVRWKGYTSDDDTWEPEIHLEDCKEVLLEFRKKIAENKAKAVRKDIQRLSLNNDIFEANSDSDQQSETKEDTSPKKKKKKLRQREEKSPDDLKKKKAKAGKLKDKSKPDLESSLESLVFDLRTKKRISEAKEELKESKKPKKDEVKETKELKKVKKGEIRDLKTKTREDPKENRKTKKEKFVESQVESESSVLNDSPFPEDDSEGLHSDSREEKQNTKSARERAGQDMGLEHGFEKPLDSAMSAEEDTDVRGRRKKKTPRKAEDTRENRKLENKNAFLEKKTVPKKQRNQDRSKSAAELEKLMPVSAQTPKGRRLSGEERGLWSTDSAEEDKETKRNESKEKYQKRHDSDKEEKGRKEPKGLKTLKEIRNAFDLFKLTPEEKNDVSENNRKREEIPLDFKTIDDHKTKENKQSLKERRNTRDETDTWAYIAAEGDQEVLDSVCQADENSDGRQQILSLGMDLQLEWMKLEDFQKHLDGKDENFAATDAIPSNVLRDAVKNGDYITVKVALNSNEEYNLDQEDSSGMTLVMLAAAGGQDDLLRLLITKGAKVNGRQKNGTTALIHAAEKNFLTTVAILLEAGAFVNVQQSNGETALMKACKRGNSDIVRLVIECGADCNILSKHQNSALHFAKQSNNVLVYDLLKNHLETLSRVAEETIKDYFEARLALLEPVFPIACHRLCEGPDFSTDFNYKPPQNIPEGSGILLFIFHANFLGKEVIARLCGPCSVQAVVLNDKFQLPVFLDSHFVYSFSPVAGPNKLFIRLTEAPSAKVKLLIGAYRVQLQ [MPHOSPH8]”, for which, in the series with HeLa Kyoto [1], the “solubility in G1/S (log2)” value is -1.16. In addition, the melting temperature in the series on HeLa Kyoto [2] (cell cycle stage: G1/S) is 49.3 °C; in the series on HeLa Kyoto [2] (cell cycle stage: mitosis), 50 °C. In addition, the “solubility change mitosis (log2)” value in the series with HeLa Kyoto [3] is 0.82. Moreover, the thermal stability score in the series with HeLa Kyoto [4] (setting [5]) stood at 0.43; with HeLa Kyoto [4] (cell cycle stage: mitosis), 1.88.

Turning to C20ORF27, the “solubility in G1/S (log2)” value in the series on HeLa Kyoto [1] is 0.205. In addition, the melting temperature in the series with HeLa Kyoto [2] (cell cycle stage: G1/S) worked out at 53.3 °C; with HeLa Kyoto [2] (cell cycle stage: mitosis), 54.8 °C. For the same substance, in the series with HeLa Kyoto [3], the “solubility change mitosis (log2)” value was -0.035. For the same substance, the figures for the thermal stability score with HeLa Kyoto [4] (setting [5]) and in the series on HeLa Kyoto [4] (cell cycle stage: mitosis) were -0.424 and -1.13, respectively.

With IQGAP3, the “solubility in G1/S (log2)” value in the series with HeLa Kyoto [1] is -0.395. In addition, the results for the melting temperature with HeLa Kyoto [2] (cell cycle stage: G1/S) and with HeLa Kyoto [2] (cell cycle stage: mitosis) were 47.8 °C and 48.1 °C, respectively. The “solubility change mitosis (log2)” value in the series on HeLa Kyoto [3] was found to be 0.191. The results for the thermal stability score in the series with HeLa Kyoto [4] (setting [5]) and with HeLa Kyoto [4] (cell cycle stage: mitosis) were 0.51 and 1.12, respectively.

For “MENKSLESSQTDLKLVAHPRAKSKVWKYFGFDTNAEGCILQWKKIYCRICMAQIAYSGNTSNLSYHLEKNHPEEFCEFVKSNTEQMREAFATAFSKLKPESSQQPGQDALAVKAGHGYDSKKQQELTAAVLGLICEGLYPASIVDEPTFKVLLKTADPRYELPSRKYISTKAIPEKYGAVREVILKELAEATWCGISTDMWRSENQNRAYVTLAAHFLGLGAPNCLSMGSRCLKTFEVPEENTAETITRVLYEVFIEWGISAKVFGATTNYGKDIVKACSLLDVAVHMPCLGHTFNAGIQQAFQLPKLGALLSRCRKLVEYFQQSAVAMYMLYEKQKQQNVAHCMLVSNRVSWWGSTLAMLQRLKEQQFVIAGVLVEDSNNHHLMLEASEWATIEGLVELLQPFKQVAEMLSASRYPTISMVKPLLHMLLNTTLNIKETDSKELSMAKEVIAKELSKTYQETPEIDMFLNVATFLDPRYKRLPFLSAFERQQVENRVVEEAKGLLDKVKDGGYRPAEDKIFPVPEEPPVKKLMRTSTPPPASVINNMLAEIFCQTGGVEDQEEWHAQVVEELSNFKSQKVLGLNEDPLKWWSDRLALFPLLPKVLQKYWCVTATRVAPERLFGSAANVVSAKRNRLAPAHVDEQVFLYENARSGAEAEPEDQDEGEWGLDQEQVFSLGDGVSGGFFGIRDSSFL [ZBED1]”, the “solubility in G1/S (log2)” value in the series with HeLa Kyoto [1] is 0.0447. The melting temperature in the series on HeLa Kyoto [2] (cell cycle stage: G1/S) stood at 49.7 °C; in the series with HeLa Kyoto [2] (cell cycle stage: mitosis), 49.6 °C. In addition, the “solubility change mitosis (log2)” value in the series with HeLa Kyoto [3] was -0.112. Also, the thermal stability score in the series on HeLa Kyoto [4] (setting [5]) was 0.506; with HeLa Kyoto [4] (cell cycle stage: mitosis) it was 0.95.
